US20040072207

System: raptor (Regulatory Associated Protein of mTOR), endogenous human protein

Q: With “mTOR (mammalian target of rapamycin), endogenous protein of human cell lines” as the substance, how does the “in vitro kinase activity of mTOR towards S6K1 (32P incorporation into GST-S6K1)” value read?
A: The value was “the in vitro kinase activity of mTOR towards S6K1 inversely correlated with the amount of raptor recovered with mTOR”.
